Laboratory results as given in the supplement of paper PMC10567573.

B1: MFF (parent)
chain: DDLTVVDAASLRRQIIKLNRRLQL
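Note: lentivirally expressed fusions sorted by FACS into six bins by GFP to DsRed ratio, PSI derived from sequencing read proportions per bin multiplied by bin number.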

Variants of: B1
Assay: protein stability index of a GFP-peptide fusion (GPS, HEK-293T) (PSI 1-6); higher = more stable
Settings: c terminus: a fixed tail appended
In the case of S10T, the protein stability index is reported as 1.61.
Work on S10V yielded a protein stability index of 1.64.
With S10W the protein stability index was 3.84.
For S10Y, the protein stability index was 1.69.
Work on L11A yielded a protein stability index of 2.33.
L11C gave a protein stability index of 2.16.
L11D gave a protein stability index of 3.79.
Variant L11E has a protein stability index of 3.7.
In the case of L11F, the protein stability index is reported as 2.48.
With L11G the protein stability index was 3.84.
Work on L11H yielded a protein stability index of 3.19.
L11I showed a protein stability index of 2.72.
L11K showed a protein stability index of 3.28.
In the case of L11M, the protein stability index is reported as 2.51.
In the case of L11N, the protein stability index is reported as 2.59.
Variant L11P has a protein stability index of 3.33.
Variant L11Q has a protein stability index of 3.24.
Variant L11R has a protein stability index of 3.91.
Variant L11S has a protein stability index of 3.73.
Variant L11T has a protein stability index of 3.39.
L11V gave a protein stability index of 3.05.
L11W showed a protein stability index of 2.84.
In the case of L11Y, the protein stability index is reported as 2.82.
For R12A, the protein stability index was 2.07.
Work on R12C yielded a protein stability index of 1.95.
Variant R12D has a protein stability index of 2.5.
R12F gave a protein stability index of 1.99.
For R12G, the protein stability index was 1.85.
R12H showed a protein stability index of 2.58.
Work on R12I yielded a protein stability index of 1.23.
R12K gave a protein stability index of 2.01.
For R12L, the protein stability index was 1.67.
R12M gave a protein stability index of 1.64.
Variant R12N has a protein stability index of 2.42.
R12P showed a protein stability index of 2.51.
Variant R12Q has a protein stability index of 2.13.
In the case of R12S, the protein stability index is reported as 2.1.
R12T gave a protein stability index of 1.73.
In the case of R12V, the protein stability index is reported as 2.06.
For R12W, the protein stability index was 1.92.
In the case of R12Y, the protein stability index is reported as 1.9.
With R13A the protein stability index was 2.88.
For R13C, the protein stability index was 2.22.
With R13D the protein stability index was 2.27.
Work on R13E yielded a protein stability index of 2.42.
Work on R13F yielded a protein stability index of 1.69.
In the case of R13G, the protein stability index is reported as 2.14.
In the case of R13H, the protein stability index is reported as 1.95.
Work on R13I yielded a protein stability index of 1.41.
Variant R13K has a protein stability index of 2.17.
R13L showed a protein stability index of 2.56.
With R13M the protein stability index was 2.54.
R13N gave a protein stability index of 2.21.
R13P gave a protein stability index of 2.56.
R13Q gave a protein stability index of 2.06.
R13S gave a protein stability index of 2.39.
With R13T the protein stability index was 1.85.
Work on R13V yielded a protein stability index of 2.55.
Work on R13Y yielded a protein stability index of 1.7.
Q14A gave a protein stability index of 1.82.
For Q14C, the protein stability index was 2.27.
Work on Q14D yielded a protein stability index of 2.16.
Q14E gave a protein stability index of 1.78.
Q14F showed a protein stability index of 1.51.
Q14G showed a protein stability index of 2.5.
Variant Q14H has a protein stability index of 1.57.
Variant Q14I has a protein stability index of 2.3.
For Q14K, the protein stability index was 2.23.
Q14L gave a protein stability index of 2.45.
Q14M showed a protein stability index of 1.04.
Variant Q14N has a protein stability index of 2.31.
Variant Q14P has a protein stability index of 3.56.
In the case of Q14R, the protein stability index is reported as 2.58.
For Q14S, the protein stability index was 2.11.
With Q14T the protein stability index was 3.2.
In the case of Q14Y, the protein stability index is reported as 1.54.
Variant I15A has a protein stability index of 2.43.
For I15D, the protein stability index was 3.96.
In the case of I15E, the protein stability index is reported as 3.83.
For I15F, the protein stability index was 2.
For I15G, the protein stability index was 3.
With I15K the protein stability index was 3.5.
I15L showed a protein stability index of 2.23.
Variant I15M has a protein stability index of 1.87.
I15N gave a protein stability index of 2.71.
With I15P the protein stability index was 4.26.
I15Q showed a protein stability index of 3.66.
I15R gave a protein stability index of 3.71.
I15S gave a protein stability index of 3.74.
Work on I15T yielded a protein stability index of 2.94.
In the case of I15V, the protein stability index is reported as 3.05.
In the case of I15W, the protein stability index is reported as 2.34.
With I15Y the protein stability index was 2.57.
Work on I16A yielded a protein stability index of 2.48.
Variant I16C has a protein stability index of 1.69.
For I16D, the protein stability index was 2.85.
For I16E, the protein stability index was 1.88.
I16F showed a protein stability index of 3.4.
I16G showed a protein stability index of 1.64.
With I16H the protein stability index was 2.26.
In the case of I16L, the protein stability index is reported as 2.19.
I16M gave a protein stability index of 1.67.
Variant I16N has a protein stability index of 2.8.
Variant I16P has a protein stability index of 3.66.
With I16Q the protein stability index was 1.98.
With I16R the protein stability index was 3.58.
Variant I16S has a protein stability index of 1.52.
For I16T, the protein stability index was 1.92.
In the case of I16Y, the protein stability index is reported as 2.97.
K17A showed a protein stability index of 1.01.
Variant K17C has a protein stability index of 2.44.
In the case of K17D, the protein stability index is reported as 1.85.
Work on K17G yielded a protein stability index of 1.99.
With K17H the protein stability index was 2.08.
Work on K17I yielded a protein stability index of 1.85.
Variant K17L has a protein stability index of 2.37.
For K17N, the protein stability index was 2.2.
With K17P the protein stability index was 3.72.
Work on K17Q yielded a protein stability index of 1.57.
K17R gave a protein stability index of 2.24.
For K17S, the protein stability index was 2.76.
In the case of K17T, the protein stability index is reported as 2.47.
Work on K17V yielded a protein stability index of 1.66.
Work on K17W yielded a protein stability index of 1.74.
In the case of K17Y, the protein stability index is reported as 1.89.
L18A gave a protein stability index of 1.86.
L18C gave a protein stability index of 1.62.
L18D gave a protein stability index of 4.13.
Variant L18F has a protein stability index of 3.41.
With L18G the protein stability index was 2.48.
In the case of L18H, the protein stability index is reported as 3.
Variant L18I has a protein stability index of 3.42.
Work on L18K yielded a protein stability index of 3.31.
L18M gave a protein stability index of 2.38.
L18N gave a protein stability index of 3.39.
Variant L18P has a protein stability index of 3.42.
L18R showed a protein stability index of 3.73.
L18S gave a protein stability index of 3.04.
L18T gave a protein stability index of 2.89.
In the case of L18V, the protein stability index is reported as 1.95.
L18W showed a protein stability index of 1.84.
For L18Y, the protein stability index was 3.26.
N19C gave a protein stability index of 3.04.
N19D showed a protein stability index of 3.79.
N19E gave a protein stability index of 3.
For N19F, the protein stability index was 2.16.
In the case of N19H, the protein stability index is reported as 1.75.
N19I showed a protein stability index of 2.02.
In the case of N19K, the protein stability index is reported as 1.94.
N19M gave a protein stability index of 1.74.
N19P gave a protein stability index of 2.33.
Work on N19Q yielded a protein stability index of 2.01.
With N19R the protein stability index was 1.76.
N19S gave a protein stability index of 2.38.
With N19T the protein stability index was 2.68.
Variant N19V has a protein stability index of 2.25.
For N19W, the protein stability index was 2.86.
N19Y showed a protein stability index of 1.85.
R20A gave a protein stability index of 1.9.
For R20C, the protein stability index was 2.06.
With R20D the protein stability index was 2.82.
For R20E, the protein stability index was 2.02.
Variant R20F has a protein stability index of 2.43.
R20G gave a protein stability index of 2.04.
Variant R20H has a protein stability index of 2.26.
Work on R20I yielded a protein stability index of 2.07.
With R20K the protein stability index was 1.02.
